Data as given in patent publication US20220010021A1 (Sanofi, published 2022).

T1: beta-Klotho (KLB) (Homo sapiens (Human), UniProt Q86Z14 1-996)
T1 construct: also called β-Klotho; not shown: C-terminal His tag of the bought R&D Systems protein
T1 sequence: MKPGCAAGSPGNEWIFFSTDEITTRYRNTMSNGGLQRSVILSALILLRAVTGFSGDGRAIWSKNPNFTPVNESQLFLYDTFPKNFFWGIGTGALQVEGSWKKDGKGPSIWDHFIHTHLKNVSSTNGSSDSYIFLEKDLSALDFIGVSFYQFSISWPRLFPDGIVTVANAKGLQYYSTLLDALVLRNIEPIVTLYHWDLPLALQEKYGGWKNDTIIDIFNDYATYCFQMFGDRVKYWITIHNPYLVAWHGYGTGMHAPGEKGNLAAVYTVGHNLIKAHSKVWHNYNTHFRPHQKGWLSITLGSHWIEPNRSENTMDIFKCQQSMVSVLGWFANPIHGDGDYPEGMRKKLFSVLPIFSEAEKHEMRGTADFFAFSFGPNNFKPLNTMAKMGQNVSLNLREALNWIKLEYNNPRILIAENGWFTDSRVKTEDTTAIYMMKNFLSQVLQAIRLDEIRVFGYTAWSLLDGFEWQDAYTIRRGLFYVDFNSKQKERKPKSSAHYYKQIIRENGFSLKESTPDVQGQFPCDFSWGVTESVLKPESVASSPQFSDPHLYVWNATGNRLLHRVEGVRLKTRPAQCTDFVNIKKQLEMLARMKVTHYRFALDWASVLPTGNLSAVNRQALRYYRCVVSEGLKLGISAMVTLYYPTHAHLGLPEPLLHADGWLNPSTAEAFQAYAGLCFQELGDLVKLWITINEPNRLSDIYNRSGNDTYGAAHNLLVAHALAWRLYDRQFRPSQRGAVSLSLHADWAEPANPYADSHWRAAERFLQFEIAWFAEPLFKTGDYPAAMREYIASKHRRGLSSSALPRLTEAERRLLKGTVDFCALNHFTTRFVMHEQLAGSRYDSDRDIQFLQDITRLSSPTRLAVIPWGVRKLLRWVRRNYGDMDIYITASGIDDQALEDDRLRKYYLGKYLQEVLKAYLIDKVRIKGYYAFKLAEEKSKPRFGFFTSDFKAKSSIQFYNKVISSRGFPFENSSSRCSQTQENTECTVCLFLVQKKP

T2: human beta-Klotho (KLB) (human, UniProt Q86Z14 53-997)
T2 construct: bought protein; also called human KLB
T2 sequence (looked up): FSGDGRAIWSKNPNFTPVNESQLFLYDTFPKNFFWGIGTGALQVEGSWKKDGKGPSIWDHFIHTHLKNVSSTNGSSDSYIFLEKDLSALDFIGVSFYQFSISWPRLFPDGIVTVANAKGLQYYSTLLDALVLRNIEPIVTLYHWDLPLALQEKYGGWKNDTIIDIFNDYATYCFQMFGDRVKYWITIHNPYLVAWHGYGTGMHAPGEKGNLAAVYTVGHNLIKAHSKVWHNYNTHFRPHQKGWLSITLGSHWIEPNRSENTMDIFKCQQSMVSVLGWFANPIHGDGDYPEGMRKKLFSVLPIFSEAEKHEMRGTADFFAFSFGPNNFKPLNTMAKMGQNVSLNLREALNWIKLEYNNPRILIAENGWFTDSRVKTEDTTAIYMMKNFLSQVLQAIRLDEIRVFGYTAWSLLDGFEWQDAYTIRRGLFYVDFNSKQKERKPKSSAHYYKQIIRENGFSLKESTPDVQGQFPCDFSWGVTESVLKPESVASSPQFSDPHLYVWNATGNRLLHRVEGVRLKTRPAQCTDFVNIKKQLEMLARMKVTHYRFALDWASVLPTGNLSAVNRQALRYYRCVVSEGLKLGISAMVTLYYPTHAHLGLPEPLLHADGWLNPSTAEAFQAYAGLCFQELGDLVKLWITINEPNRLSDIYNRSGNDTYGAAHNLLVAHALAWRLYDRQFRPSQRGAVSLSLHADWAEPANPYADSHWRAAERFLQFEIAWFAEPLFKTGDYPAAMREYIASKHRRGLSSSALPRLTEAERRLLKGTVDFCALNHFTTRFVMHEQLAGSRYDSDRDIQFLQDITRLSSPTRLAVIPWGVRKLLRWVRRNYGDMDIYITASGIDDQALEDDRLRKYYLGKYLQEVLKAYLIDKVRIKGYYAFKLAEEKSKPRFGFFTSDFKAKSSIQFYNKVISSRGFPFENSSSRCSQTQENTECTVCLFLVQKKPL


Assays:
beta-Klotho (KLB) = target: T1, beta-Klotho (KLB); assay: BLI (Octet) off-rate screening, mAb from supernatant on anti-hIgG Fc sensor, 5 nmol/L KLB;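 also: dissociation followed for 1800 s in D-PBS plus 0.1% BSA, antibody supernatants applied at 25 µg/mL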
[1] = target: cell surface receptor composed of the tyrosine kinase receptor FGFR1c and co-receptor beta-Klotho (KLB) (human, UniProt P11362 22-822; Q86Z14 1-1044); assay: cell-based or functional assay
Sequence of cell surface receptor composed of the tyrosine kinase receptor FGFR1c and co-receptor beta-Klotho (KLB) (P11362 22-822, one chain of several): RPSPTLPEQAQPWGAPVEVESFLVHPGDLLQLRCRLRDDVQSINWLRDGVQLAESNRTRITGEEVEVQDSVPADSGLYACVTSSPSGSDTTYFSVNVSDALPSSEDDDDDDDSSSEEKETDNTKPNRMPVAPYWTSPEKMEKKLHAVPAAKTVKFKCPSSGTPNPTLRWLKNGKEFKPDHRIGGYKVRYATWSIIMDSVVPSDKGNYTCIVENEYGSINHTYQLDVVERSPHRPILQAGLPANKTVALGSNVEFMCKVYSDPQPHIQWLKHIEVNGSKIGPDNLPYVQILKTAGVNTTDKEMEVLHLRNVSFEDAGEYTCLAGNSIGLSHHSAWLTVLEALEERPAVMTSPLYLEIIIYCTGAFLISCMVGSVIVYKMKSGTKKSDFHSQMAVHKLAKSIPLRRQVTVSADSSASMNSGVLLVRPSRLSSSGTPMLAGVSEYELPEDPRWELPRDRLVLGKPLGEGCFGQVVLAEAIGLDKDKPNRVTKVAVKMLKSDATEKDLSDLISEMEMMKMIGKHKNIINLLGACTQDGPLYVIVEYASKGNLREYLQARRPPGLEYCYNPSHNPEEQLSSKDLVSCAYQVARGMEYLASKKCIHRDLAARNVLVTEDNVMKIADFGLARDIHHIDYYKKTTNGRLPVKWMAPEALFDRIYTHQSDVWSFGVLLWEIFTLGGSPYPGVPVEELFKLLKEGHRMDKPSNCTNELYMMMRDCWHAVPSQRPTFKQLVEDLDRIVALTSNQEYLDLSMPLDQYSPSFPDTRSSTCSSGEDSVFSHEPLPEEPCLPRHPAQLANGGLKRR

[2] = target: human FGFR1c + KLB receptor complex on HEK293 iLite FGF21 reporter cells (human, UniProt P11362 22-822; Q86Z14 1-1044); assay: cell-based or functional assay
Sequence of human FGFR1c + KLB receptor complex on HEK293 iLite FGF21 reporter cells (P11362 22-822, chain 1 of 2): as the sequence (P11362 22-822, one chain of several) above
Sequence of human FGFR1c + KLB receptor complex on HEK293 iLite FGF21 reporter cells (Q86Z14 whole entry, chain 2 of 2): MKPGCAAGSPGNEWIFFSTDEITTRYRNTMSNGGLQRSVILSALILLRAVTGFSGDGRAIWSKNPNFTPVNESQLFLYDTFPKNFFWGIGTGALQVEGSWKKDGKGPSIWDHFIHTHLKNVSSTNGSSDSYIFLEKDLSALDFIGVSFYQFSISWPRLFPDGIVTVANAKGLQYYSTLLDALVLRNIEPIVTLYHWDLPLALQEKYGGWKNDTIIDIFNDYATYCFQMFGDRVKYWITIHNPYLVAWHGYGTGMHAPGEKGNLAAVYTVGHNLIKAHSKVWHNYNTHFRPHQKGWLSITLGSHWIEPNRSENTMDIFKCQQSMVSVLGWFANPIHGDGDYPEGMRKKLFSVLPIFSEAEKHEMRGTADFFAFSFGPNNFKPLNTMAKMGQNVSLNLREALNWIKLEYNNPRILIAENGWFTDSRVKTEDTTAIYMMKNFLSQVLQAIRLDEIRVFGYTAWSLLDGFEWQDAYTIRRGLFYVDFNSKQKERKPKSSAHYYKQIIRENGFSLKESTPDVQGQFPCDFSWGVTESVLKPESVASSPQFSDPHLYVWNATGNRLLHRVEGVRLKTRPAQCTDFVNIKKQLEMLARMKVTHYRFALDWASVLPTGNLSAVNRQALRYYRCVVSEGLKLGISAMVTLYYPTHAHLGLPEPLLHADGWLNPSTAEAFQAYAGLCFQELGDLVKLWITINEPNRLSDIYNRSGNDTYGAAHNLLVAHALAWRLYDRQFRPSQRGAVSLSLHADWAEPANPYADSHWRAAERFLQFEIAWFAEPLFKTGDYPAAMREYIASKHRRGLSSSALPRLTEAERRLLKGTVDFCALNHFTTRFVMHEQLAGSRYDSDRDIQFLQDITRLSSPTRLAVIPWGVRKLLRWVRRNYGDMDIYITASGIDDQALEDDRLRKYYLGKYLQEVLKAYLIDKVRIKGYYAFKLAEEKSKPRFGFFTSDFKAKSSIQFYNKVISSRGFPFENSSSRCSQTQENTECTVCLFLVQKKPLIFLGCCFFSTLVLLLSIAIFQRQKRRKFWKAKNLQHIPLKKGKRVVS

human beta-Klotho (KLB) = target: T2, human beta-Klotho (KLB); assay: SPR;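 also: Anti-KLB antibodies captured on anti-human Fc CM5 chip, KLB injected as analyte, 180 s association and 1800 s dissociation, fitted to 1:1 binding model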

koff (beta-Klotho (KLB)) [s⁻¹] | Mean E max, Luciferase gene reporter assay [1] [%] | Mean EC50, Luciferase gene reporter assay [1] [nM] | EC50 [2] [nM] | Emax [2] [%] | koff (human beta-Klotho (KLB)) [s⁻¹] | Binder
2.2e-05 | 100 | 0.111 |  |  |  | 16H7 variant with light chain substitution H96D (antibody, human IgG4 S228P, lambda, V domains shown, IgG4 backbone was used) VH: not shown VL: SYVLTQPPSVSVAPGQTARITCGGNNIGSESVHWYQQKPGQAPVLVVYDDSDRPSGIPERFSGSNSGNTATLTISRVEAGDEADYYCQVWDGNSDDVVFGGGTKLTVLG
1.4e-05 | 8 |  |  |  |  | 16H7 variant with light chain substitution D95M (antibody, human IgG4 S228P, lambda, V domains shown, IgG4 backbone was used) VH: not shown VL: SYVLTQPPSVSVAPGQTARITCGGNNIGSESVHWYQQKPGQAPVLVVYDDSDRPSGIPERFSGSNSGNTATLTISRVEAGDEADYYCQVWDGNSMHVVFGGGTKLTVLG
0.00015 | 95 | 0.13 |  |  |  | 16H7 variant with light chain substitution H96G (antibody, human IgG4 S228P, lambda, V domains shown, IgG4 backbone was used) VH: not shown VL: SYVLTQPPSVSVAPGQTARITCGGNNIGSESVHWYQQKPGQAPVLVVYDDSDRPSGIPERFSGSNSGNTATLTISRVEAGDEADYYCQVWDGNSDGVVFGGGTKLTVLG
 |  |  | 0.05 | 863 | 0.00107 | Ab0416 (antibody, IgG4, V domains shown, IgG4 PE) VH: QVTLKESGPVLVKPTETLTLTCTVSGFSLNNARVGVSWIRQPPGKALEWLAHIFSNDEKSYSTSLKSRLTISKDTSKSQVVLTMTNMDPVDTATYYCARSVVTGGYYYEGMDVWGQGTTVTVSS VL: SYVLTQPPSVSVAPGQTARITCGGSNIGSESVHWYQQKPGQAPVLVVYYESDRPSGIPERFSGSNSGNTATLTISRVEAGDEADYYCQVWEGESDHVVFGGGTKLTVLG
0.00016 | 4 |  |  |  |  | 16H7 variant with light chain substitution D95I (antibody, human IgG4 S228P, lambda, V domains shown, IgG4 backbone was used) VH: not shown VL: SYVLTQPPSVSVAPGQTARITCGGNNIGSESVHWYQQKPGQAPVLVVYDDSDRPSGIPERFSGSNSGNTATLTISRVEAGDEADYYCQVWDGNSIHVVFGGGTKLTVLG
 |  |  | 0.07 | 986 | 0.00163 | Ab0361 (antibody, IgG4, V domains shown, IgG4 PE) VH: QVTLKESGPVLVKPTETLTLTCTVSGFSLNNARVGVSWIRQPPGKALEWLAHIFSNDEKSYSTSLKSRLTISKDTSKSQVVLTMTNMDPVDTATYYCARSVVTGGYYYEGMDVWGQGTTVTVSS VL: SYVLTQPPSVSVAPGQTARITCGGSNIGSESVHWYQQKPGQAPVLVVYESSDRPSGIPERFSGSNSGNTATLTISRVEAGDEADYYCQVWEGSSDHVVFGGGTKLTVLG
6.4e-05 | 98 | 0.179 |  |  |  | 16H7 variant with light chain substitution H96K (antibody, human IgG4 S228P, lambda, V domains shown, IgG4 backbone was used) VH: not shown VL: SYVLTQPPSVSVAPGQTARITCGGNNIGSESVHWYQQKPGQAPVLVVYDDSDRPSGIPERFSGSNSGNTATLTISRVEAGDEADYYCQVWDGNSDKVVFGGGTKLTVLG
0.00013 | 4 |  |  |  |  | 16H7 variant with light chain substitution D95Y (antibody, human IgG4 S228P, lambda, V domains shown, IgG4 backbone was used) VH: not shown VL: SYVLTQPPSVSVAPGQTARITCGGNNIGSESVHWYQQKPGQAPVLVVYDDSDRPSGIPERFSGSNSGNTATLTISRVEAGDEADYYCQVWDGNSYHVVFGGGTKLTVLG

The remaining lines, values behind:

Binder | koff (beta-Klotho (KLB)) [s⁻¹] | Mean E max, Luciferase gene reporter assay [1] [%] | Mean EC50, Luciferase gene reporter assay [1] [nM] | EC50 [2] [nM] | Emax [2] [%] | koff (human beta-Klotho (KLB)) [s⁻¹]
16H7 variant with light chain substitution S94G (antibody, human IgG4 S228P, lambda, V domains shown, IgG4 backbone was used) VH: not shown VL: SYVLTQPPSVSVAPGQTARITCGGNNIGSESVHWYQQKPGQAPVLVVYDDSDRPSGIPERFSGSNSGNTATLTISRVEAGDEADYYCQVWDGNGDHVVFGGGTKLTVLG | 6.8e-05 | 100 | 0.146 |  |  | 
Ab0417 (antibody, IgG4, V domains shown, IgG4 PE) VH: QVTLKESGPVLVKPTETLTLTCTVSGFSLNNARVGVSWIRQPPGKALEWLAHIFSNDEKSYSTSLKSRLTISKDTSKSQVVLTMTNMDPVDTATYYCARSVVTGGYYYEGMDVWGQGTTVTVSS VL: SYVLTQPPSVSVAPGQTARITCGGSNIGSESVHWYQQKPGQAPVLVVYYESDRPSGIPERFSGSNSGNTATLTISRVEAGDEADYYCQVWHGESDHVVFGGGTKLTVLG |  |  |  | 0.06 | 1110 | 0.000303
Ab0364 (antibody, IgG4, V domains shown, IgG4 PE) VH: QVTLKESGPVLVKPTETLTLTCTVSGFSLNNARVGVSWIRQPPGKALEWLAHIFSNDEKSYSTSLKSRLTISKDTSKSQVVLTMTNMDPVDTATYYCARSVVTGGYYYEGMDVWGQGTTVTVSS VL: SYVLTQPPSVSVAPGQTARITCGGANIGSESVHWYQQKPGQAPVLVVYEESDRPSGIPERFSGSNSGNTATLTISRVEAGDEADYYCQVWEGSSDHVVFGGGTKLTVLG |  |  |  | 0.11 | 991 | 0.00169
16H7 variant with light chain substitution H96E (antibody, human IgG4 S228P, lambda, V domains shown, IgG4 backbone was used) VH: not shown VL: SYVLTQPPSVSVAPGQTARITCGGNNIGSESVHWYQQKPGQAPVLVVYDDSDRPSGIPERFSGSNSGNTATLTISRVEAGDEADYYCQVWDGNSDEVVFGGGTKLTVLG | 1.1e-05 | 100 | 0.122 |  |  | 
16H7 variant with light chain substitution D95A (antibody, human IgG4 S228P, lambda, V domains shown, IgG4 backbone was used) VH: not shown VL: SYVLTQPPSVSVAPGQTARITCGGNNIGSESVHWYQQKPGQAPVLVVYDDSDRPSGIPERFSGSNSGNTATLTISRVEAGDEADYYCQVWDGNSAHVVFGGGTKLTVLG | 0.0002 | 12 |  |  |  | 
Ab0358 (antibody, IgG4, V domains shown, IgG4 PE) VH: QVTLKESGPVLVKPTETLTLTCTVSGFSLNNARVGVSWIRQPPGKALEWLAHIFSNDEKSYSTSLKSRLTISKDTSKSQVVLTMTNMDPVDTATYYCARSVVTGGYYYEGMDVWGQGTTVTVSS VL: SYVLTQPPSVSVAPGQTARITCGGSNIGSESVHWYQQKPGQAPVLVVYEASDRPSGIPERFSGSNSGNTATLTISRVEAGDEADYYCQVWHGSSDHVVFGGGTKLTVLG |  |  |  | 0.07 | 858 | 0.000454
Ab0360 (antibody, IgG4, V domains shown, IgG4 PE) VH: QVTLKESGPVLVKPTETLTLTCTVSGFSLNNARVGVSWIRQPPGKALEWLAHIFSNDEKSYSTSLKSRLTISKDTSKSQVVLTMTNMDPVDTATYYCARSVVTGGYYYEGMDVWGQGTTVTVSS VL: SYVLTQPPSVSVAPGQTARITCGGSNIGSESVHWYQQKPGQAPVLVVYEHSDRPSGIPERFSGSNSGNTATLTISRVEAGDEADYYCQVWEGSSDHVVFGGGTKLTVLG |  |  |  | 0.08 | 845 | 0.00192
16H7 variant with light chain substitution D95H (antibody, human IgG4 S228P, lambda, V domains shown, IgG4 backbone was used) VH: not shown VL: SYVLTQPPSVSVAPGQTARITCGGNNIGSESVHWYQQKPGQAPVLVVYDDSDRPSGIPERFSGSNSGNTATLTISRVEAGDEADYYCQVWDGNSHHVVFGGGTKLTVLG | 8.1e-06 | 33 | 29.7 |  |  | 
